The target of experiment [1] is human OX40 on cells (CHO-hOX40, 293HEK-hOX40, Jurkat-hOX40, activated primary CD4+ T cells) (human) (UniProt P43489). The experiment is described as follows: cell-based or functional assay.
Experiment [2] shares this target. The experiment in a line: flow cytometry, CHO-hOX40, 100 nM.
For experiment [3] the target is unchanged. The experiment in a line: flow cytometry, 293HEK-hOX40, 8 nM. On the technique in general: In flow cytometry, cells or beads pass a laser one at a time.
For experiment [4] the target is unchanged. The experiment in a line: flow cytometry, 293HEK-hOX40, 40 nM.
Experiment [5] shares this target. The experiment is described as follows: flow cytometry, 293HEK-hOX40, 1.6 nM.
Experiment [6] has the same target. The experiment in a line: flow cytometry, 293HEK-hOX40, 200 nM.
Experiment [7] has as its target human OX40_Fc (R&D Systems) (human) (UniProt P43489). The experiment in a line: BLI, IgG1 on tip, hOX40-Fc 50 nM, avid.
The target in experiment [8] is cyno OX40_Fc (Acro Biosystems) (cyno). The experiment is described as follows: BLI, IgG1 on tip, cyno OX40-Fc 100 nM, avid. In general terms: BLI is a label-free optical method that tracks binding on a fibre tip over time.
In experiment [9] the target is human OX40 on cells (CHO-hOX40, 293HEK-hOX40, Jurkat-hOX40, activated primary CD4+ T cells) (human) (UniProt P43489). The experiment is described as follows: flow cytometry, activated CD4+ T cells, donor 2, 100 nM.
Experiment [10] has the same target. The experiment is described as follows: flow cytometry, CHO-hOX40, 100 nM blocker, competitor OX40L-hFc-fluorescein.

Some results are limits rather than exact numbers.

Sequence of human OX40 on cells (CHO-hOX40, 293HEK-hOX40, Jurkat-hOX40, activated primary CD4+ T cells) (human) (P43489 29-277): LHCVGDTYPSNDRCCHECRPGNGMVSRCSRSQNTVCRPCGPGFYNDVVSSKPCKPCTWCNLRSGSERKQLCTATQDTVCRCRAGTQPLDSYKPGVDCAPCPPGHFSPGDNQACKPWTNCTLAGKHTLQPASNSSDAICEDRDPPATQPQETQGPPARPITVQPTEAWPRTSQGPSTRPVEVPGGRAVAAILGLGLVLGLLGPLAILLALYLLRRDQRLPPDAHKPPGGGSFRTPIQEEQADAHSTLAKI
Sequence of human OX40_Fc (R&D Systems) (human) (P43489 29-216): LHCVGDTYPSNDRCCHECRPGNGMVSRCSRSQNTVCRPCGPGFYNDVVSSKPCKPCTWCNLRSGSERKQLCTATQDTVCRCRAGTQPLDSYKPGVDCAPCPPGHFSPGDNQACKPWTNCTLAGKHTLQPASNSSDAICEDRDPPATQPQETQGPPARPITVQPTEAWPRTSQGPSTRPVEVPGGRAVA

Take pogalizumab, human IgG1 OX40 antibody: in experiment [1], the blocking of OX40L-based activation (recombinant OX40L 60 ug/ml), NFkB-luciferase in Jurkat-hOX40 is > 0.08 nM.
11D4, IgG1 OX40 antibody: the CHO-OX40 binding intensity (MFI) in [2] came out at 169000 MFI. The MFI in experiment [3] is 2.06e+06 MFI; in [4] it was 2.76e+06 MFI; in [5] it was 613000 MFI; in [6] it was 2.41e+06 MFI; in experiment [9], 242000 MFI. Further, the Kd (commonly the concentration at which binding is half-saturated) stood at 0.613 nM in experiment [7] and 5.95 nM in [8]. This substance also gave an MFI of OX40L signal on CHO-OX40 cells in experiment [10] of 36000 MFI.

(Values after patent US20200140562A1.)
